Laboratory results as given in patent US20190062414A1 (PHILOGEN S P A, published 2019).

T1: BCD domains of murine tenascin-C (murine, UniProt Q80YX1 1349-1620, limits assumed)
T1 construct: domain: BCD domains; Coated on a CM5 chip; also called domain BCD of murine Tenascin-C
T1 sequence (looked up): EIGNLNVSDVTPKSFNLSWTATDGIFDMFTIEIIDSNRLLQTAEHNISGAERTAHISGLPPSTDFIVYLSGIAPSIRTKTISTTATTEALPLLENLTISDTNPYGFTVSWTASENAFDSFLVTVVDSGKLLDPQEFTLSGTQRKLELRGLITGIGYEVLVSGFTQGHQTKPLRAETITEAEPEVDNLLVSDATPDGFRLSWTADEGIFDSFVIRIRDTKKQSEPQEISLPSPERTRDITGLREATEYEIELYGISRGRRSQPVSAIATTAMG

T2: D domain of human Tenascin-C (human, UniProt P24821 1622-1711, limits assumed)
T2 construct: domain: D domain; Coated on a CM5 chip; also called domain D of human Tenascin-C; human tenascin-C D domain
T2 sequence (looked up): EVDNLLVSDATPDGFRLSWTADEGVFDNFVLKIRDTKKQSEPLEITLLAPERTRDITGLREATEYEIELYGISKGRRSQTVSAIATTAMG


Columns and labels:
[1] = biological target: murine MMP3 (murine, UniProt P28862 100-272); assay: Biacore (SPR), scFv; set-up not described
[2] = biological target: human MMP3 (human, UniProt P08254 100-272); assay: Biacore (SPR), scFv; set-up not described
[3] = biological target: T1, BCD domains of murine tenascin-C; assay: Biacore (SPR), scFv on BCD domains of murine tenascin-C
[4] = biological target: T2, D domain of human Tenascin-C; assay: Biacore (SPR), scFv over CM5 chip coated with human tenascin-C D domain
Experimental: CPR01 was analysed for antigen binding by Biacore using a CM5 chip coated with the human tenascin-C D domain. The flow rate for the Biacore analysis was set at 10 μL/min.

Sequence of human MMP3 (P08254 100-272): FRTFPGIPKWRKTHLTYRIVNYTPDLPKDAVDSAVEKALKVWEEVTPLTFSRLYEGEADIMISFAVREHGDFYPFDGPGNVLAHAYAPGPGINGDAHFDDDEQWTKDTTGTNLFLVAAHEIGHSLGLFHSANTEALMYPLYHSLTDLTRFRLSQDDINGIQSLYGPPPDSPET
Sequence of murine MMP3 (P28862 100-272): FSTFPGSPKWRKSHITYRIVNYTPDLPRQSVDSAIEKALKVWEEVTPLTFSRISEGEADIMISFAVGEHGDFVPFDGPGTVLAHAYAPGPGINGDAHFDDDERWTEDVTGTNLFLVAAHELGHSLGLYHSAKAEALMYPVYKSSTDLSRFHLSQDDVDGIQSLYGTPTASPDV

Row | Kd [1] | koff [1] | kon [1] | Kd [2] | koff [2] | kon [2] | Kd [3] | koff [3] | kon [3] | Kd [4] | koff [4] | kon [4] | Binder
1 | 29 nM | 0.0025 s⁻¹ | 80000 M⁻¹ s⁻¹ | 28 nM | 0.0047 s⁻¹ | 170000 M⁻¹ s⁻¹ | – | – | – | – | – | – | scFv(CH01) (scFv, First disclosed in PCT/EP2015/067309; also called anti-MMP3 antibody CH01) scFv: EVQLLESGGGLVQPGGSLRLSCAASGFTFSPYAMSWVRQAPGKGLEWVSAITGQGGVTYYADSVKGRFTISRDNSKNTLYLQMNSLRAEDTAVYYCAKISSFHFDYWGQGTLVTVSSGGGGSGGGGSGGGGEIVLTQSPGTLSLSPGERATLSCRASQSVSSHHLAWYQQKPGQAPRLLIYDASSRATGIPDRFSGSGSGTDFTLTISRLEPEDFAVYYCQQPRGAPTTFGQGTKVEIK
2 | – | – | – | – | – | – | 29 nM | 0.007 s⁻¹ | 240000 M⁻¹ s⁻¹ | 70 nM | 0.011 s⁻¹ | 151000 M⁻¹ s⁻¹ | scFv(CPR01) (scFv, Expressed in CHO.S cells as scFv) scFv: EVQLLESGGGLVQPGGSLRLSCAASGFTFSSYAMSWVRQAPGKGLEWVSAIKARGGLTYYADSVKGRFTISRDNSKNTLYLQMNSLRAEDTAVYYCAKGGAPFDYWGQGTLVTVSSGGGGSGGGGSGGGGSSELTQDPAVSVALGQTVRITCQGDSLRSYYASWYQQKPGQAPVLVIYGKNNRPSGIPDRFSGSSSGNTASLTITGAQAEDEADYYCNSSPLNRLAVVFGGGTKLTVLG
